Experimental findings from article PMC3526301 are described below.

A word on the Ki: it is the equilibrium dissociation constant of an inhibitor or competing ligand from its target. Higher therefore signals weaker binding.

Series [1] deals with T1, human alpha-thrombin (Homo sapiens) (UniProt P00734+P00734). Description: bead-based fluorescence binding. Conditions: 50 mM Tris, 100 mM NaCl, 1 mM MgCl2, 5 mM KCl, 1 mM CaCl2, 0.01% Tween 20, pH 7.5 (selection buffer), 1 h room temperature ….
Series [2] deals with T1, human alpha-thrombin (Homo sapiens). Description: fibrin formation inhibition (OD350). Conditions: 50 mM Tris, 100 mM NaCl, 1 mM MgCl2, 5 mM KCl, 1 mM CaCl2, 0.01% Tween 20, pH 7.5 (selection buffer), 1 h room temperature ….

In series [1], “AGTCCGTGGTAGGGCAGGTTGGGGTGACT [Tasset-29]” gave a fold affinity loss vs TBV-08 (fold lower affinity than TBV-08) of 200. The sequence GGTTGGTGTGGTTGG [Bock-15] yielded a Ki in series [2] of 2.61 nM. Further, the fold affinity loss vs TBV-08 (fold lower affinity than TBV-08) in series [1] worked out at 300.
